The record followed here is patent US20210032299A1.

To fix the notation:
T1: human glucose-dependent insulinotropic polypeptide (GIP) receptor (human), P48546
T1 chain: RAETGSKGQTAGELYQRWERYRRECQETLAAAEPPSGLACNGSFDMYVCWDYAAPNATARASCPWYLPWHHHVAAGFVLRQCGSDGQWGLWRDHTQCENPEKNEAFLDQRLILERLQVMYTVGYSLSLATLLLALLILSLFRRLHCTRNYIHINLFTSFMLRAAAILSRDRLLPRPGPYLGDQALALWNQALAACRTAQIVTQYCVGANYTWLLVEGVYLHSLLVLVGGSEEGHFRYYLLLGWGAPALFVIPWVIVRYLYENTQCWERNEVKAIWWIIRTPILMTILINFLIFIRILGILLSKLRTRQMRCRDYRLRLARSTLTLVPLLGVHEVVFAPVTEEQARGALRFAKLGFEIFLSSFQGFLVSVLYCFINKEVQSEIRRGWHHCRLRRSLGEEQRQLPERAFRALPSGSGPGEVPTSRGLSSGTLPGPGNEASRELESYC

B1: Example 104 (peptide)
peptide: Y[Aib]EGTFISDYSI[αMeL]LD[Orn]IHQ[Aib]EFVEYK([AEEA-AEEA-γGlu-C20 diacid])LEAGPSSGAPPPS-NH2
modifications: N-terminus assumed
SMILES: CC[C@H](C)[C@H](NC(=O)[C@H](CCCN)NC(=O)[C@H](CC(=O)O)NC(=O)[C@H](CC(C)C)NC(=O)[C@](C)(CC(C)C)NC(=O)[C@@H](NC(=O)[C@H](CO)NC(=O)[C@H](Cc1ccc(O)cc1)NC(=O)[C@H](CC(=O)O)NC(=O)[C@H](CO)NC(=O)[C@@H](NC(=O)[C@H](Cc1ccccc1)NC(=O)[C@@H](NC(=O)CNC(=O)[C@H](CCC(=O)O)NC(=O)C(C)(C)NC(=O)[C@@H](N)Cc1ccc(O)cc1)[C@@H](C)O)[C@@H](C)CC)[C@@H](C)CC)C(=O)N[C@@H](Cc1c[nH]cn1)C(=O)N[C@@H](CCC(N)=O)C(=O)NC(C)(C)C(=O)N[C@@H](CCC(=O)O)C(=O)N[C@@H](Cc1ccccc1)C(=O)N[C@H](C(=O)N[C@@H](CCC(=O)O)C(=O)N[C@@H](Cc1ccc(O)cc1)C(=O)N[C@@H](CCCCNC(=O)COCCOCCNC(=O)COCCOCCNC(=O)CC[C@H](NC(=O)CCCCCCCCCCCCCCCCCCC(=O)O)C(=O)O)C(=O)N[C@@H](CC(C)C)C(=O)N[C@@H](CCC(=O)O)C(=O)N[C@@H](C)C(=O)NCC(=O)N1CCC[C@H]1C(=O)N[C@@H](CO)C(=O)N[C@@H](CO)C(=O)NCC(=O)N[C@@H](C)C(=O)N1CCC[C@H]1C(=O)N1CCC[C@H]1C(=O)N1CCC[C@H]1C(=O)N[C@@H](CO)C(N)=O)C(C)C
B2: Example 105 (peptide)
peptide: Y[Aib]EGTFISDYSI[αMeL]LD[Orn]IHQ[Aib]EFVEYK([AEEA-AEEA-γGlu-C20 diacid])LETGPSSGAPPPS-NH2
modifications: N-terminus assumed
SMILES: CC[C@H](C)[C@H](NC(=O)[C@H](CCCN)NC(=O)[C@H](CC(=O)O)NC(=O)[C@H](CC(C)C)NC(=O)[C@](C)(CC(C)C)NC(=O)[C@@H](NC(=O)[C@H](CO)NC(=O)[C@H](Cc1ccc(O)cc1)NC(=O)[C@H](CC(=O)O)NC(=O)[C@H](CO)NC(=O)[C@@H](NC(=O)[C@H](Cc1ccccc1)NC(=O)[C@@H](NC(=O)CNC(=O)[C@H](CCC(=O)O)NC(=O)C(C)(C)NC(=O)[C@@H](N)Cc1ccc(O)cc1)[C@@H](C)O)[C@@H](C)CC)[C@@H](C)CC)C(=O)N[C@@H](Cc1c[nH]cn1)C(=O)N[C@@H](CCC(N)=O)C(=O)NC(C)(C)C(=O)N[C@@H](CCC(=O)O)C(=O)N[C@@H](Cc1ccccc1)C(=O)N[C@H](C(=O)N[C@@H](CCC(=O)O)C(=O)N[C@@H](Cc1ccc(O)cc1)C(=O)N[C@@H](CCCCNC(=O)COCCOCCNC(=O)COCCOCCNC(=O)CC[C@H](NC(=O)CCCCCCCCCCCCCCCCCCC(=O)O)C(=O)O)C(=O)N[C@@H](CC(C)C)C(=O)N[C@@H](CCC(=O)O)C(=O)N[C@H](C(=O)NCC(=O)N1CCC[C@H]1C(=O)N[C@@H](CO)C(=O)N[C@@H](CO)C(=O)NCC(=O)N[C@@H](C)C(=O)N1CCC[C@H]1C(=O)N1CCC[C@H]1C(=O)N1CCC[C@H]1C(=O)N[C@@H](CO)C(N)=O)[C@@H](C)O)C(C)C
B3: Example 109 (peptide)
peptide: Y[Aib]EGTFISDYSI[αMeL]LDKIHQ[Aib]DFVE[4Pal]K([AEEA-AEEA-γGlu-C20 diacid])LEGGPSSGAPPPS-NH2
modifications: N-terminus assumed
SMILES: CC[C@H](C)[C@H](NC(=O)[C@H](CCCCN)NC(=O)[C@H](CC(=O)O)NC(=O)[C@H](CC(C)C)NC(=O)[C@](C)(CC(C)C)NC(=O)[C@@H](NC(=O)[C@H](CO)NC(=O)[C@H](Cc1ccc(O)cc1)NC(=O)[C@H](CC(=O)O)NC(=O)[C@H](CO)NC(=O)[C@@H](NC(=O)[C@H](Cc1ccccc1)NC(=O)[C@@H](NC(=O)CNC(=O)[C@H](CCC(=O)O)NC(=O)C(C)(C)NC(=O)[C@@H](N)Cc1ccc(O)cc1)[C@@H](C)O)[C@@H](C)CC)[C@@H](C)CC)C(=O)N[C@@H](Cc1c[nH]cn1)C(=O)N[C@@H](CCC(N)=O)C(=O)NC(C)(C)C(=O)N[C@@H](CC(=O)O)C(=O)N[C@@H](Cc1ccccc1)C(=O)N[C@H](C(=O)N[C@@H](CCC(=O)O)C(=O)N[C@@H](Cc1ccncc1)C(=O)N[C@@H](CCCCNC(=O)COCCOCCNC(=O)COCCOCCNC(=O)CC[C@H](NC(=O)CCCCCCCCCCCCCCCCCCC(=O)O)C(=O)O)C(=O)N[C@@H](CC(C)C)C(=O)N[C@@H](CCC(=O)O)C(=O)NCC(=O)NCC(=O)N1CCC[C@H]1C(=O)N[C@@H](CO)C(=O)N[C@@H](CO)C(=O)NCC(=O)N[C@@H](C)C(=O)N1CCC[C@H]1C(=O)N1CCC[C@H]1C(=O)N1CCC[C@H]1C(=O)N[C@@H](CO)C(N)=O)C(C)C
B4: Example 102 (peptide)
peptide: Y[Aib]EGTFISDYSI[αMeL]LD[Orn]IHQ[Aib]EFV[dE]YK([AEEA-AEEA-γGlu-C20 diacid])LEGGPSSGAPPPS-NH2
modifications: N-terminus assumed
SMILES: CC[C@H](C)[C@H](NC(=O)[C@H](CCCN)NC(=O)[C@H](CC(=O)O)NC(=O)[C@H](CC(C)C)NC(=O)[C@](C)(CC(C)C)NC(=O)[C@@H](NC(=O)[C@H](CO)NC(=O)[C@H](Cc1ccc(O)cc1)NC(=O)[C@H](CC(=O)O)NC(=O)[C@H](CO)NC(=O)[C@@H](NC(=O)[C@H](Cc1ccccc1)NC(=O)[C@@H](NC(=O)CNC(=O)[C@H](CCC(=O)O)NC(=O)C(C)(C)NC(=O)[C@@H](N)Cc1ccc(O)cc1)[C@@H](C)O)[C@@H](C)CC)[C@@H](C)CC)C(=O)N[C@@H](Cc1c[nH]cn1)C(=O)N[C@@H](CCC(N)=O)C(=O)NC(C)(C)C(=O)N[C@@H](CCC(=O)O)C(=O)N[C@@H](Cc1ccccc1)C(=O)N[C@H](C(=O)N[C@H](CCC(=O)O)C(=O)N[C@@H](Cc1ccc(O)cc1)C(=O)N[C@@H](CCCCNC(=O)COCCOCCNC(=O)COCCOCCNC(=O)CC[C@H](NC(=O)CCCCCCCCCCCCCCCCCCC(=O)O)C(=O)O)C(=O)N[C@@H](CC(C)C)C(=O)N[C@@H](CCC(=O)O)C(=O)NCC(=O)NCC(=O)N1CCC[C@H]1C(=O)N[C@@H](CO)C(=O)N[C@@H](CO)C(=O)NCC(=O)N[C@@H](C)C(=O)N1CCC[C@H]1C(=O)N1CCC[C@H]1C(=O)N1CCC[C@H]1C(=O)N[C@@H](CO)C(N)=O)C(C)C
B5: Example 103 (peptide)
peptide: Y[Aib]EGTFISDYSI[αMeL]LD[Orn]IHQ[Aib]DFVEYK([AEEA-AEEA-γGlu-C18 diacid])LEGGPSSGAPPPS-NH2
modifications: N-terminus assumed
SMILES: CC[C@H](C)[C@H](NC(=O)[C@H](CCCN)NC(=O)[C@H](CC(=O)O)NC(=O)[C@H](CC(C)C)NC(=O)[C@](C)(CC(C)C)NC(=O)[C@@H](NC(=O)[C@H](CO)NC(=O)[C@H](Cc1ccc(O)cc1)NC(=O)[C@H](CC(=O)O)NC(=O)[C@H](CO)NC(=O)[C@@H](NC(=O)[C@H](Cc1ccccc1)NC(=O)[C@@H](NC(=O)CNC(=O)[C@H](CCC(=O)O)NC(=O)C(C)(C)NC(=O)[C@@H](N)Cc1ccc(O)cc1)[C@@H](C)O)[C@@H](C)CC)[C@@H](C)CC)C(=O)N[C@@H](Cc1c[nH]cn1)C(=O)N[C@@H](CCC(N)=O)C(=O)NC(C)(C)C(=O)N[C@@H](CC(=O)O)C(=O)N[C@@H](Cc1ccccc1)C(=O)N[C@H](C(=O)N[C@@H](CCC(=O)O)C(=O)N[C@@H](Cc1ccc(O)cc1)C(=O)N[C@@H](CCCCNC(=O)COCCOCCNC(=O)COCCOCCNC(=O)CC[C@H](NC(=O)CCCCCCCCCCCCCCCCC(=O)O)C(=O)O)C(=O)N[C@@H](CC(C)C)C(=O)N[C@@H](CCC(=O)O)C(=O)NCC(=O)NCC(=O)N1CCC[C@H]1C(=O)N[C@@H](CO)C(=O)N[C@@H](CO)C(=O)NCC(=O)N[C@@H](C)C(=O)N1CCC[C@H]1C(=O)N1CCC[C@H]1C(=O)N1CCC[C@H]1C(=O)N[C@@H](CO)C(N)=O)C(C)C
B6: Example 108 (peptide)
peptide: Y[Aib]EGTFISDYSI[αMeL]LD[Orn]IHQ[Aib]DFVE[4Pal]K([AEEA-AEEA-γGlu-C20 diacid])LEGGPSSGAPPPS-NH2
modifications: N-terminus assumed
SMILES: CC[C@H](C)[C@H](NC(=O)[C@H](CCCN)NC(=O)[C@H](CC(=O)O)NC(=O)[C@H](CC(C)C)NC(=O)[C@](C)(CC(C)C)NC(=O)[C@@H](NC(=O)[C@H](CO)NC(=O)[C@H](Cc1ccc(O)cc1)NC(=O)[C@H](CC(=O)O)NC(=O)[C@H](CO)NC(=O)[C@@H](NC(=O)[C@H](Cc1ccccc1)NC(=O)[C@@H](NC(=O)CNC(=O)[C@H](CCC(=O)O)NC(=O)C(C)(C)NC(=O)[C@@H](N)Cc1ccc(O)cc1)[C@@H](C)O)[C@@H](C)CC)[C@@H](C)CC)C(=O)N[C@@H](Cc1c[nH]cn1)C(=O)N[C@@H](CCC(N)=O)C(=O)NC(C)(C)C(=O)N[C@@H](CC(=O)O)C(=O)N[C@@H](Cc1ccccc1)C(=O)N[C@H](C(=O)N[C@@H](CCC(=O)O)C(=O)N[C@@H](Cc1ccncc1)C(=O)N[C@@H](CCCCNC(=O)COCCOCCNC(=O)COCCOCCNC(=O)CC[C@H](NC(=O)CCCCCCCCCCCCCCCCCCC(=O)O)C(=O)O)C(=O)N[C@@H](CC(C)C)C(=O)N[C@@H](CCC(=O)O)C(=O)NCC(=O)NCC(=O)N1CCC[C@H]1C(=O)N[C@@H](CO)C(=O)N[C@@H](CO)C(=O)NCC(=O)N[C@@H](C)C(=O)N1CCC[C@H]1C(=O)N1CCC[C@H]1C(=O)N1CCC[C@H]1C(=O)N[C@@H](CO)C(N)=O)C(C)C

Starred links: 1 amine or outer side, 2 acyl side, 3 side chain; linkers in the order of their positions; H or OH if unused. Non-standard residues stand in square brackets, D forms with d. Groups on a side chain read outwards from the residue. No end group written: not given here. *: point of attachment. C20 diacid = O=C(O)CCCCCCCCCCCCCCCCCCC(=O)*; C18 diacid = O=C(O)CCCCCCCCCCCCCCCCC(=O)*; γGlu = O=C(O)[C@H](CCC(=O)[*:2])N[*:1]; 4Pal = N[C@@H](Cc1ccncc1)C(=O)O; αMeL = CC(C)C[C@](C)(N)C(=O)O; Orn = NCCC[C@H](N)C(=O)O; AEEA = NCCOCCOCC(=O)O; Aib = CC(C)(N)C(=O)O

In this assay the target is T1, human glucose-dependent insulinotropic …. Briefly: SPA, displacement of [125I]-GIP from hGIPR membranes, 0.1% bacitracin.
The Ki is a measure of affinity in units of concentration, obtained from inhibition or displacement. Read a low Ki as a stronger hold on the target. Regarding B1, the Ki was found to be 0.134 nM.

Take B2: the Ki stood at 0.174 nM.

In turn, B3 gave a Ki of 0.117 nM.

In turn, B4 yielded a Ki of 0.164 nM.

Consider B5, for which the Ki is 0.0405 nM.

B6 had a Ki of 0.134 nM.
